Results published in the Human Domainome abundance scans (Beltran et al. 2025).
± gives the uncertainty stated by the source.

B1: Ankyrin-1, residues 1405 to 1484; numbered along this chain, P16157 (parent)
chain: MKMAVISEHLGLSWAELARELQFSVEDINRIRVENPNSLLEQSVALLNLWVIREGQNANMENLYTALQSIDRGEIVNMLE

Variants of: B1
Test: abundance fitness (aPCA) (normalised: wild type 0, dead -1); higher = more abundant; growth selection in yeast, the domain comes from the species named
Conditions: Homo sapiens
L12Q showed an abundance fitness of -0.233 ± 0.24. With L12I the abundance fitness was 0.153 ± 0.32. L12D gave an abundance fitness of -0.124 ± 0.16. With L12F the abundance fitness was -0.069 ± 0.2. L12K gave an abundance fitness of -0.133 ± 0.2. Variant I31P has an abundance fitness of -0.639 ± 0.29. Variant V33A has an abundance fitness of 0.096 ± 0.057. Variant V33S has an abundance fitness of -0.03 ± 0.061. For V33T, the abundance fitness was 0.138 ± 0.082. With V33K the abundance fitness was -0.215 ± 0.14. With V33P the abundance fitness was -0.764 ± 0.24. In the case of S69K, the abundance fitness is reported as -0.035 ± 0.099. Variant V51N has an abundance fitness of -0.159 ± 0.12. Variant V51K has an abundance fitness of 0.156 ± 0.1. N57K showed an abundance fitness of -0.117 ± 0.11. For N57T, the abundance fitness was -0.154 ± 0.16. N57A showed an abundance fitness of -0.212 ± 0.13. With L10W the abundance fitness was -0.872 ± 0.23. Variant L10K has an abundance fitness of -0.509 ± 0.38. Variant L10N has an abundance fitness of -0.69 ± 0.28. With P36T the abundance fitness was -0.525 ± 0.15. Work on P36C yielded an abundance fitness of -0.069 ± 0.098. Variant M3A has an abundance fitness of -0.435 ± 0.08. Work on M3V yielded an abundance fitness of -0.024 ± 0.053. M3Y showed an abundance fitness of -0.708 ± 0.18. M3S gave an abundance fitness of -0.365 ± 0.066. Variant E20Q has an abundance fitness of 0.069 ± 0.12. For E20I, the abundance fitness was -0.135 ± 0.12. In the case of R19D, the abundance fitness is reported as -0.296 ± 0.11. In the case of R19Q, the abundance fitness is reported as -0.052 ± 0.12. Variant R19G has an abundance fitness of -0.229 ± 0.042. With R19F the abundance fitness was 0.067 ± 0.057. Work on R19I yielded an abundance fitness of -0.489 ± 0.17. With L47A the abundance fitness was -0.905 ± 0.15. For L47V, the abundance fitness was -0.308 ± 0.066. L47P gave an abundance fitness of -0.654 ± 0.16. In the case of N35V, the abundance fitness is reported as -0.171 ± 0.12. For N35K, the abundance fitness was -0.064 ± 0.16. With N35L the abundance fitness was -0.491 ± 0.12. N35M gave an abundance fitness of -0.317 ± 0.17. E41C gave an abundance fitness of -0.173 ± 0.075. For E41F, the abundance fitness was -0.28 ± 0.11. Work on E41M yielded an abundance fitness of -0.275 ± 0.12. For E41S, the abundance fitness was -0.005 ± 0.048. E80S showed an abundance fitness of -0.056 ± 0.099. For E80Y, the abundance fitness was -0.048 ± 0.1. E80L gave an abundance fitness of -0.329 ± 0.12. R30I gave an abundance fitness of -0.356 ± 0.2. R30H gave an abundance fitness of -0.081 ± 0.22. For R30G, the abundance fitness was -0.236 ± 0.05. Variant R30N has an abundance fitness of -0.134 ± 0.071. Work on N77C yielded an abundance fitness of -0.479 ± 0.18. R72A showed an abundance fitness of -0.632 ± 0.1. With R72S the abundance fitness was -0.57 ± 0.11. Variant R32K has an abundance fitness of -0.3 ± 0.12. Work on R32Y yielded an abundance fitness of -0.43 ± 0.15. Work on R32I yielded an abundance fitness of -0.124 ± 0.071. For T65P, the abundance fitness was 0.095 ± 0.065. With M78C the abundance fitness was 0.065 ± 0.085. With G73A the abundance fitness was -0.17 ± 0.038. G73W showed an abundance fitness of -0.29 ± 0.05. For E34Y, the abundance fitness was -0.565 ± 0.38. E34F showed an abundance fitness of -0.185 ± 0.16. With S38F the abundance fitness was -0.345 ± 0.17. In the case of S38V, the abundance fitness is reported as -0.351 ± 0.13. In the case of S38P, the abundance fitness is reported as -0.822 ± 0.23. A66Q gave an abundance fitness of -0.402 ± 0.21. Variant A66T has an abundance fitness of -0.794 ± 0.13. N37H gave an abundance fitness of -0.366 ± 0.29. For A58L, the abundance fitness was 0.157 ± 0.063. A58N gave an abundance fitness of 0.092 ± 0.19. In the case of A58G, the abundance fitness is reported as 0.038 ± 0.048. In the case of N48D, the abundance fitness is reported as 0.154 ± 0.081. In the case of N48M, the abundance fitness is reported as -0.575 ± 0.11. In the case of N48H, the abundance fitness is reported as -0.042 ± 0.086. In the case of M60F, the abundance fitness is reported as 0.671 ± 0.27. For M60A, the abundance fitness was -0.343 ± 0.16. For I6V, the abundance fitness was 0.224 ± 0.15. H9F gave an abundance fitness of -0.249 ± 0.18. W50A gave an abundance fitness of -0.902 ± 0.2. Variant W50K has an abundance fitness of -0.655 ± 0.18. With V76A the abundance fitness was -0.423 ± 0.08. For V76G, the abundance fitness was -0.566 ± 0.069. V76Q gave an abundance fitness of -0.505 ± 0.12. Variant E74Q has an abundance fitness of -0.45 ± 0.13. In the case of G11T, the abundance fitness is reported as -0.371 ± 0.1. In the case of G11K, the abundance fitness is reported as -0.362 ± 0.17. Variant G11R has an abundance fitness of -0.41 ± 0.084. Work on G11L yielded an abundance fitness of -0.447 ± 0.11. S13L showed an abundance fitness of -0.417 ± 0.12. S13R showed an abundance fitness of -0.442 ± 0.09. For S13G, the abundance fitness was -0.237 ± 0.062. For S43T, the abundance fitness was -0.807 ± 0.21. S43D gave an abundance fitness of -0.503 ± 0.15. S43K showed an abundance fitness of -0.598 ± 0.15. In the case of D71P, the abundance fitness is reported as -0.437 ± 0.11. With D71A the abundance fitness was -0.229 ± 0.053. Variant L49P has an abundance fitness of -0.81 ± 0.19. Variant L49Q has an abundance fitness of 0.014 ± 0.075. In the case of I28F, the abundance fitness is reported as -0.738 ± 0.22. In the case of I28V, the abundance fitness is reported as -0.1 ± 0.051. L39A gave an abundance fitness of -0.103 ± 0.069. L39D showed an abundance fitness of -0.063 ± 0.18. L39T gave an abundance fitness of 0.116 ± 0.16. With L39Q the abundance fitness was 0.019 ± 0.17. Work on Y64I yielded an abundance fitness of -0.302 ± 0.13. Variant E54V has an abundance fitness of -0.412 ± 0.061. E26M gave an abundance fitness of -0.189 ± 0.1. For N62S, the abundance fitness was -0.081 ± 0.076. Variant N62L has an abundance fitness of -0.037 ± 0.09. N62Y showed an abundance fitness of 0.002 ± 0.11. V44R gave an abundance fitness of 0.181 ± 0.051. Work on V44Y yielded an abundance fitness of 0.03 ± 0.09. Work on E61S yielded an abundance fitness of -0.284 ± 0.16. Work on L46N yielded an abundance fitness of -0.878 ± 0.36. L46P gave an abundance fitness of -0.891 ± 0.23. In the case of L46D, the abundance fitness is reported as -1.1 ± 0.41. Work on L46C yielded an abundance fitness of -0.138 ± 0.2. Variant L46M has an abundance fitness of -0.201 ± 0.039. Work on I70A yielded an abundance fitness of -0.808 ± 0.16. For W14C, the abundance fitness was -1.05 ± 0.28. Work on W14R yielded an abundance fitness of -1.08 ± 0.21. Work on D27E yielded an abundance fitness of -0.08 ± 0.069. D27W showed an abundance fitness of -0.89 ± 0.15. For D27K, the abundance fitness was -0.508 ± 0.15. In the case of D27A, the abundance fitness is reported as -0.071 ± 0.069. Variant A18W has an abundance fitness of -0.9 ± 0.19. For Q42V, the abundance fitness was -0.813 ± 0.1. Work on Q42Y yielded an abundance fitness of -0.864 ± 0.28. In the case of Q42C, the abundance fitness is reported as -0.061 ± 0.095. Work on Q42A yielded an abundance fitness of -0.257 ± 0.064. With Q42S the abundance fitness was -0.383 ± 0.079. Variant L67C has an abundance fitness of -0.743 ± 0.28. L67M gave an abundance fitness of -0.092 ± 0.1. Work on Q22P yielded an abundance fitness of -0.522 ± 0.14. In the case of Q22R, the abundance fitness is reported as -0.093 ± 0.051. In the case of Q22I, the abundance fitness is reported as -0.276 ± 0.15. In the case of A45M, the abundance fitness is reported as -0.173 ± 0.12. Work on E16W yielded an abundance fitness of -0.593 ± 0.15. Work on V25Y yielded an abundance fitness of 0.143 ± 0.097. F23W showed an abundance fitness of -0.964 ± 0.17. Work on Q68F yielded an abundance fitness of -0.178 ± 0.13. Work on Q68W yielded an abundance fitness of -0.146 ± 0.071. With Q68V the abundance fitness was -0.08 ± 0.054. V5G showed an abundance fitness of -0.592 ± 0.078. V5N gave an abundance fitness of -0.606 ± 0.24. Work on V5M yielded an abundance fitness of -0.092 ± 0.11. With V5I the abundance fitness was -0.337 ± 0.15. G55L showed an abundance fitness of -0.871 ± 0.2. In the case of G55S, the abundance fitness is reported as -0.277 ± 0.12. Variant G55T has an abundance fitness of -0.133 ± 0.15. G55Q showed an abundance fitness of -0.339 ± 0.13. Variant G55I has an abundance fitness of -0.687 ± 0.32. Variant A4G has an abundance fitness of 0.084 ± 0.071. S24Q showed an abundance fitness of -0.195 ± 0.088. Variant S24A has an abundance fitness of -0.213 ± 0.056. For Q56C, the abundance fitness was -0.167 ± 0.1. Work on Q56T yielded an abundance fitness of 0.158 ± 0.12. Q56G showed an abundance fitness of -0.035 ± 0.05. Variant S7G has an abundance fitness of -0.176 ± 0.04. With S7A the abundance fitness was 0.109 ± 0.055. S7L showed an abundance fitness of -0.808 ± 0.1. With S7F the abundance fitness was -0.126 ± 0.12. K2V gave an abundance fitness of -0.089 ± 0.057. For K2M, the abundance fitness was -0.132 ± 0.14. A15G showed an abundance fitness of -0.108 ± 0.037. In the case of A15F, the abundance fitness is reported as -0.039 ± 0.058.
